Where two headings read alike, the source gives them in different places.
Assays:
[1] = biological target: human FcγRIIIa (V158 allele) (human) (UniProt P08637)
[2] = biological target: human FcγRIIIa (F158 allele) (human) (UniProt P08637); experiment: MSD [cont'd]
human FcγRIIb (human) [3] = biological target: human FcγRIIb (human) (UniProt P31994); experiment: MSD [cont'd]
[4] = biological target: human FcγRIIa (R131 allele) (human) (UniProt P12318); experiment: MSD [cont'd]
human C1q (human) [5] = biological target: human C1q (human) (UniProt P02745); experiment: MSD [cont'd]
Chain of human C1q (human) (P02745 23-245 limits assumed, chain 1 of 3): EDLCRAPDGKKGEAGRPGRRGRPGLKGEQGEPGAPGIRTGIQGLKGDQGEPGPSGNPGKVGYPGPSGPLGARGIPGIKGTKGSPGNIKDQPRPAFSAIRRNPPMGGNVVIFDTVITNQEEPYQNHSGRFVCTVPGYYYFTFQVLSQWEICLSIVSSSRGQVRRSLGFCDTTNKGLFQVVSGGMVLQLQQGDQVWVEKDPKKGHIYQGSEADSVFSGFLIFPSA
Chain of human C1q (human) (P02746 28-253 limits assumed, chain 2 of 3, further chain): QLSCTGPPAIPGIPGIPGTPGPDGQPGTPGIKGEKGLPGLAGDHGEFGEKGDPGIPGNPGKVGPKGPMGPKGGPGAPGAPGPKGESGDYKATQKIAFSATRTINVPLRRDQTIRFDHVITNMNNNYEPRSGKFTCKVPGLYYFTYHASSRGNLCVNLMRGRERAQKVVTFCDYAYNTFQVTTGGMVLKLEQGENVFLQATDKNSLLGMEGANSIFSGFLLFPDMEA
Chain of human C1q (human) (P02747 29-245 limits assumed, chain 3 of 3, further chain): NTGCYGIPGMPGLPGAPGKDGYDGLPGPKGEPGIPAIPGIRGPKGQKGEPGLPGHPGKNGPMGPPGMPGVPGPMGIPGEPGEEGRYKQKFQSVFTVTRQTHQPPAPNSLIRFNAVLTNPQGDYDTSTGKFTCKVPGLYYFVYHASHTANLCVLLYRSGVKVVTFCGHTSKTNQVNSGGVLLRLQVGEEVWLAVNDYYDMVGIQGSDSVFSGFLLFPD

[6] = biological target: human FcγRIIa (H131 allele) (human) (UniProt P12318); experiment: MSD [cont'd]
Chain of human FcγRIIa (H131 allele) (human) (P12318 34-218 limits assumed): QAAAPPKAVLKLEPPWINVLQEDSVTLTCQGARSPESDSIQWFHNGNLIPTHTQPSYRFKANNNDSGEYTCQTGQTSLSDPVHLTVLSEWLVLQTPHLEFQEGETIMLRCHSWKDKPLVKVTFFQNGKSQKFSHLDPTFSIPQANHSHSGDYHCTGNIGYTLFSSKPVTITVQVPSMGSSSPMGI

[7] = biological target: human FcγRIIIa (V158 allele) (human) (UniProt P08637); experiment: MSD [cont'd]
human FcRn (human) [8] = biological target: human FcRn (human) (UniProt P55899); experiment: MSD [cont'd]
Chain of human FcRn (human) (P55899 24-297 limits assumed, chain 1 of 2): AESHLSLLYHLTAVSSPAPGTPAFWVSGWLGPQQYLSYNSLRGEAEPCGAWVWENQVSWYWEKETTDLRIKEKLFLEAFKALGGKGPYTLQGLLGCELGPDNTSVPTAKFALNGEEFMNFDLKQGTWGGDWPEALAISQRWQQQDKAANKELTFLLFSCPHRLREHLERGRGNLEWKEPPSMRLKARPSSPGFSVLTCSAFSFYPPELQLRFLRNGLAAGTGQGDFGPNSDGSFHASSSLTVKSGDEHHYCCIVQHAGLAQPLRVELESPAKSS
Chain of human FcRn (human) (chain, as listed by the source limits assumed, chain 2 of 2): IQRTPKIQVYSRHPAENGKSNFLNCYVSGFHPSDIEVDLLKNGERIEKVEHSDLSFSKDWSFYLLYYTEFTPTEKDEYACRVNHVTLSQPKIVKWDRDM

[9] = biological target: human FcγRIIIa (F158 allele) (human) (UniProt P08637); experiment: MSD [cont'd]; remark: listed apart in the source
human C1q (human) [10] = biological target: human C1q (human) (UniProt P02745); experiment: MSD [cont'd]; remark: listed apart in the source
[11] = biological target: human FcγRIIIa (V158 allele) (human) (UniProt P08637); experiment: MSD [cont'd]; remark: listed apart in the source
human FcγRIIb (human) [12] = biological target: human FcγRIIb (human) (UniProt P31994); experiment: MSD
[13] = biological target: human FcγRIIa (R131 allele) (human) (UniProt P12318); experiment: MSD
[14] = biological target: human FcγRIIa (H131 allele) (human) (UniProt P12318); experiment: MSD
human FcRn (human) [15] = biological target: human FcRn (human) (UniProt P55899); experiment: MSD, pH 6 [cont'd]
human FcγRIIb (human) [16] = biological target: human FcγRIIb (human) (UniProt P31994); experiment: MSD [cont'd]; remark: listed apart in the source
[17] = biological target: human FcγRIIa (R131 allele) (human) (UniProt P12318); experiment: MSD [cont'd]; remark: listed apart in the source
[18] = biological target: human FcγRIIa (H131 allele) (human) (UniProt P12318); experiment: MSD [cont'd]; remark: listed apart in the source
human FcγRIIIb (human) = human FcγRIIIb (human) (UniProt O75015); experiment: MSD [cont'd]
Chain of human FcγRIIIb (human) (O75015 17-200 limits assumed): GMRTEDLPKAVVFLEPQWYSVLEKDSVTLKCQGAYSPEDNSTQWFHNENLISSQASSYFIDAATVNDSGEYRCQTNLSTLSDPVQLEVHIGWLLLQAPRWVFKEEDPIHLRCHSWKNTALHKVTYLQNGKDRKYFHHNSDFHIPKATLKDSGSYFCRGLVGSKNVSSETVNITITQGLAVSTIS

human FcRn (human) [19] = biological target: human FcRn (human) (UniProt P55899); experiment: MSD [cont'd]; remark: listed apart in the source
[20] = biological target: human FcγRIIIa (F158 allele) (human) (UniProt P08637)
human FcγRIIb (human) [21] = biological target: human FcγRIIb (human) (UniProt P31994)
[22] = biological target: human FcγRIIa (H131 allele) (human) (UniProt P12318)
[23] = biological target: human FcγRIIIa (V158 allele) (human) (UniProt P08637); remark: listed apart in the source
[24] = biological target: human FcγRIIIa (F158 allele) (human) (UniProt P08637); remark: listed apart in the source

Chain of human FcγRIIIa (V158 allele) (human) (P08637 17-208 F176V limits assumed): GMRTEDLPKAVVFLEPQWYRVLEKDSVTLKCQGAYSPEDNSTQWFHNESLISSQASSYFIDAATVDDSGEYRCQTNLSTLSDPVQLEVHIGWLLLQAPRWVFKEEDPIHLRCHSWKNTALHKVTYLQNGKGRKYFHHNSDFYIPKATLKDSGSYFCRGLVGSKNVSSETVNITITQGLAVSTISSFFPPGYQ
Chain of human FcγRIIb (human) (P31994 43-217 limits assumed): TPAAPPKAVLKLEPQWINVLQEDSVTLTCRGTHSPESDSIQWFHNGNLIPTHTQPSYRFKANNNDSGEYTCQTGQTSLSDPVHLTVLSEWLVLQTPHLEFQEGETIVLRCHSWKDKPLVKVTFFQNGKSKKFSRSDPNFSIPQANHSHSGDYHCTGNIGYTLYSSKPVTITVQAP
Chain of human FcγRIIIa (F158 allele) (human) (P08637 17-208 limits assumed): as the sequence (P08637 17-208 F176V limits assumed) above, with V160F counted along it
Chain of human FcγRIIa (R131 allele) (human) (P12318 34-218 H167R limits assumed): as the sequence (P12318 34-218 limits assumed) above, with H134R counted along it

| Substance | FcγR reporter signaling, fold to wt-fucose [cont'd] [1] | fold-change vs wt [2] | fold-change vs wt (human FcγRIIb (human) [3]) | fold-change vs wt [4] | fold-change vs wt (human C1q (human) [5]) | fold-change vs wt [6] | fold-change vs wt [7] | fold-change vs wt (human FcRn (human) [8]) | fold-change to WT Fc [9] | fold-change to WT Fc (human C1q (human) [10]) | fold-change to WT Fc [11] | fold-change to WT Fc (human FcγRIIb (human) [12]) | fold-change to WT Fc [13] | fold-change to WT Fc [14] | fold-change to WT Fc (human FcRn (human) [15]) | other results |
| --- | --- | --- | --- | --- | --- | --- | --- | --- | --- | --- | --- | --- | --- | --- | --- | --- |
| L309T_P238D_P396L_T366A-afuc (antibody) | 0.16 fold | – | – | – | – | – | – | – | – | – | – | – | – | – | – | – |
| IgG1 antibody with Fc variant G236Y | – | 0.56 fold | 0.55 fold | 0.42 fold | 3.22 fold | 0.74 fold | 0.12 fold | 1.05 fold | 0.559 fold | 3.25 fold | 0.116 fold | 0.547 fold | 0.418 fold | 0.735 fold | 1.05 fold | – |
| IgG1 antibody with Fc variant G236W | – | 0.54 fold | 0.65 fold | 0.47 fold | 3.63 fold | 1.06 fold | 0.12 fold | 1.09 fold | 0.541 fold | 3.66 fold | 0.117 fold | 0.652 fold | 0.469 fold | 1.06 fold | 1.09 fold | – |
| IgG1 antibody with Fc variant E272R_L309T_S219Y_S267E | – | 0.37 fold | 4.77 fold | 10.7 fold | 2.53 fold | 0.33 fold | – | 0.98 fold | – | – | – | – | – | – | – | – |
| A330L_I332E (antibody) | – | – | – | – | – | – | – | – | – | – | – | – | – | – | – | fold-change vs wt [9]: 11.9 fold; fold-change vs wt (human FcγRIIb (human) [16]): 0.66 fold; fold-change vs wt [17]: 0.52 fold; fold-change vs wt (human C1q (human) [10]): 0.03 fold; fold-change vs wt [18]: 0.42 fold; fold-change vs wt (human FcγRIIIb (human)): 5.19 fold; fold-change vs wt [11]: 3.52 fold; fold-change vs wt (human FcRn (human) [19]): 1.12 fold; FcγR reporter signaling, fold-change vs wt [cont'd] [20]: 11.9 fold; FcγR reporter signaling, fold-change vs wt [cont'd] (human FcγRIIb (human) [21]): 0.69 fold; FcγR reporter signaling, fold-change vs wt [cont'd] [22]: 0.71 fold; FcγR reporter signaling, fold-change vs wt [cont'd] [23]: 4.38 fold |
| G236A_S239D_A330L_I332E-afuc (antibody) | 5.16 fold | – | – | – | – | – | – | – | – | – | – | – | – | – | – | fold to wt-fucose [9]: 730 fold; fold to wt-fucose (human FcγRIIb (human) [16]): 1.21 fold; fold to wt-fucose [17]: 7.58 fold; fold to wt-fucose [18]: 3.58 fold; fold to wt-fucose (human FcγRIIIb (human)): 94.3 fold; fold to wt-fucose [11]: 75.6 fold; fold to wt-fucose (human FcRn (human) [19]): 0.96 fold; FcγR reporter signaling, fold to wt-fucose [cont'd] [24]: 11.5 fold |
| IgG1 antibody with Fc variant Y300L | – | 1.24 fold | – | – | 2.14 fold | – | 1.62 fold | 1.06 fold | 1.25 fold | 2.16 fold | 1.62 fold | 1.18 fold | 0.822 fold | 1.86 fold | 1.06 fold | fold-change vs wt (human FcγRIIb (human) [16]): 1.18 fold; fold-change vs wt [17]: 0.82 fold; fold-change vs wt [18]: 1.86 fold |
| S239D_H268E_G236A-afuc (antibody) | 5.65 fold | – | – | – | – | – | – | – | – | – | – | – | – | – | – | fold to wt-fucose [9]: 425 fold; fold to wt-fucose (human FcγRIIb (human) [16]): 6.35 fold; fold to wt-fucose [17]: 62 fold; fold to wt-fucose [18]: 13.6 fold; fold to wt-fucose (human FcγRIIIb (human)): 38.1 fold; fold to wt-fucose [11]: 84.9 fold; fold to wt-fucose (human FcRn (human) [19]): 1.01 fold; FcγR reporter signaling, fold to wt-fucose [cont'd] [24]: 11.6 fold |

Source: patent publication US20260184814A1, “BROADLY NE[…] INFLUENZA NEURAMINIDASE” (priority 2022, published 2026)
